Experimental data as given in paper PMC11022072.

Biological target: bovine lactoferrin (Lf) (bovine)
Assay: […]; 20 mM HEPES pH 7.4, 150 mM NaCl

Work on “C-terminal α-helical domain (CaHD) of Moraxella bovis LbpB (domain or fragment)” yielded a stoichiometry N of 1.
